From PMC11467669

Molecular target: full-length USP8 (a.a. 7-1110) phosphorylated at S718 by AMPK (human) (UniProt P40818)
Experiment: SEC-MALLS

Sequence of full-length USP8 (a.a. 7-1110) phosphorylated at S718 by AMPK (human) (P40818 7-1110): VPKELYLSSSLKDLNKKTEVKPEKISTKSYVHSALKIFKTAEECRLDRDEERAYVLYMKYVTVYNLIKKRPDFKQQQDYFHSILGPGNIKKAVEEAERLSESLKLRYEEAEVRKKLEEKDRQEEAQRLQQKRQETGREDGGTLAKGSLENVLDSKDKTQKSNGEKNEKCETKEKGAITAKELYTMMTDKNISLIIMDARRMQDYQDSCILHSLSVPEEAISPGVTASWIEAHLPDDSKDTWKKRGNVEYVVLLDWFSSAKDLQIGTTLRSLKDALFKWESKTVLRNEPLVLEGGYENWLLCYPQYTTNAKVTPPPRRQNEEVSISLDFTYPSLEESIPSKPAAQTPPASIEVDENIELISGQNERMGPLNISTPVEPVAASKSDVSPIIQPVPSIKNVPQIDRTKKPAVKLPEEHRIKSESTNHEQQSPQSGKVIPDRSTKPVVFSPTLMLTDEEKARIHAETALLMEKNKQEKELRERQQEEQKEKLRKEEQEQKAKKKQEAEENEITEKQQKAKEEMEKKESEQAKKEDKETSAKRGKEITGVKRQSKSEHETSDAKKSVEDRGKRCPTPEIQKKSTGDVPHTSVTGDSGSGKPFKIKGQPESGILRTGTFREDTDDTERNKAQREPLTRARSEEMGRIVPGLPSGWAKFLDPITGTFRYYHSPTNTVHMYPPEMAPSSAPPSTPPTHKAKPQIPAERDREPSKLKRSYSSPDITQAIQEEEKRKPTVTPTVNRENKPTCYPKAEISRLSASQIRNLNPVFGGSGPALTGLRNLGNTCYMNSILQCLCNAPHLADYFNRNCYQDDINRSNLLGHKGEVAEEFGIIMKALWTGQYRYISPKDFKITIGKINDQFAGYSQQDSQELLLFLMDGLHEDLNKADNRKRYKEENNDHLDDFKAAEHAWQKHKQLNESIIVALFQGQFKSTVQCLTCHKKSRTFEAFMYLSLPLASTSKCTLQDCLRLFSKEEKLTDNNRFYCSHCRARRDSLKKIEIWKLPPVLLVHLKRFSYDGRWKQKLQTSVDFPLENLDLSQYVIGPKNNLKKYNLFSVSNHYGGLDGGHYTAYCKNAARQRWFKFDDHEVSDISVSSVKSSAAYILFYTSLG

14-3-3γ (from UniProt P61981 1-247) (natural protein)
stoichiometry N (14-3-3γ dimer per USP8): 1
